One block for each compound: values may come before it.
Key:
[1] = Solubility of Sudan III; assay type: physicochemical
[2] = tested on: HT-29 tumors; test: Biodistribution of chromophore-polymer in HT-29 tumored mice after intravenous injection; assay type: in vivo, female immunodeficient mice; details: for injected dose localized in the tumor: after one hour, solution in phosphate buffered saline injected
Protocol: General Method Used For the Measurement of Chromophore-Polymer Distribution in the Mouse
Tac:N:NIH(S)-nufDF, female immunodef icient mice
Tac:Cr:NCr-nufBr, female immunodeficient mice
HT29-Human Colon Carcinoma
The mice were randomised into groups based on tumor volumes. On the day of the study, the test articles (Polymers 1,2) were injected into the mice via the tail vein. Chloroaluminium phthalocyanine tetrasulfonate was used as a reference compound (control) in one group of mice in these studies. […] The blood was collected by heart puncture and put into either EDTA or Lithium Heparin tubes. The samples were then spun down and the plasma was collected and weighed. The spleen, liver, kidneys, muscle and tumor were collected, rinsed with PBS and weighed in pre-tared tubes. The samples were then either refrigerated for immediate analysis or frozen at −20 degrees Celsius and subsequently analysed.
B) Plasma Collection and Preparation
Plasma was collected in tared Eppendorf tubes and the tubes were weighed. To each tube was added 1 mL of ethanol. The contents of the tubes were mixed with a vortex mixer and then micro-centrifuged at 14000 rpm for 2 min. The supernatant liquid was transferred by pipette into a clean and labelled Eppendorf tube. This procedure was repeated for all plasma samples. Each sample was transferred to a clean cuvette and the amount of chromophore was determined by absorbance at a predetermined wavelength. Concentration of the chromophore in the sample was determined by comparison with a standard curve generated from known concentrations of chromophore.
C) Organ Collection and Preparation
Organs were removed from the mice, placed in tared sample tubes, and the new weights were recorded. To each tube was added 1 mL of deionised water, and the organs were homogenised. The homogenate was transferred into a tared Eppendorf tube and the weight was recorded. To this homogenate was added 500 μl of ethanol, the mixture was mixed by vortex mixer, and the contents of the tube was centrifuged in a micro-centrifuge at 8000 rpm for 2 min. The supernatant was transferred by pipette into a clean Eppendorf tube. To the residual pellet was added 500 μl of ethanol, the mixture was mixed by shaking vigorously in a vortex mixer, and the sample was centrifuged again. The supernatants were combined, transferred to a clean cuvette, and the concentration of the chromophore was determined spectroscopically at pre-determined absorbance by comparison with the standard curve. The mean concentration of the chromophore in each organ was determined by regressional analysis.

[3] = tested on: HT-29 tumors; test: Photographic / visual light imaging of HT-29 tumors from mice 24 hours post injection of contrast agent; assay type: in vivo, female immunodeficient mice
Protocol: FIG. 4 is a photograph taken under room fluorescent light of female immunodeficient mice with exposed human HT-29 tumors 24 hours post intravenous (tail vein) injection with 0.1 mg/(g body weight) in PBS of the blue contrast agent NC100526. The labeled sheet to the right of the mice was spotted with PBS solutions of several contrast agents of this invention and then dried in order to show how they appear under various illumination and imaging conditions. The tumors (indicated by arrows) have been sliced to expose their interiors as well as their exteriors.
The light source was ambient fluorescent room light.
The photograph was taken with black-and-white infrared film using irradiation at 780 nm from an array of light-emitting diodes. These conditions gave maximum absorption and contrast enhancement of NC100448 as evidenced by the darkened spot of contrast agent on the paper chart.
FIGS. 8a and 8b are photographs of two views taken from different angles of HT-29 tumors sliced open and removed from mice at 24 hours post injection with 10 mg/(g body weight) of NC100505 in PBS and irradiated with 366 nm wavelength light. […] In the black and white photograph they appear as bright spots. Other organs and the skin appear normal.
FIG. 10a is a photograph of a collection of excised tumors viewed under ambient fluorescent room light. The top row contains tumors resected from mice at 24 hours post i.v. injection with NC100505 in PBS. The second, third, and fourth rows are tumors resected from mice 24 hours post i.v. injection with PBS solutions of NC100526, NC100448, and NC100524, respectively. […]
FIG. 11 is a photograph of a set of excised tumors irradiated with 780 nm infrared light that were removed from mice 24 hours post injection with PBS solutions of NC100448 (top row) and indocyanine green (bottom row). The image was recorded with an infrared sensitive CCD camera (Bischke, Type N-CCD-4024, fitted with a Computar TV Zoom lens 1:1.2/12.5-75) on VHS tape (Maxell HGX Plus) at 30 frames/sec using a Panasonic AG-1310P HQ Video Cassette Recorder with super 4-Head VHS SQPB). […]

[4] = one hour post intravenous injection of phosphate buffered saline solution, mice with HT-29 tumors
[5] = 3 hr, i.v. 0.05 mg/(g body weight) in PBS, HT 29 tumored mice
[6] = 6 hr, i.v. 0.05 mg/(g body weight) in PBS, HT 29 tumored mice
[7] = 24 hr, i.v. 0.05 mg/(g body weight) in PBS, HT 29 tumored mice
[8] = at 24 hours, i.v. 0.05 mg/(g body weight) in PBS
[9] = three hours post intravenous injection of phosphate buffered saline solution, mice with HT-29 tumors
[10] = three hours versus one hour post intravenous injection
[11] = female immunodeficient mice with HT-29 tumors
[12] = 6 hr after injection, Table 2, female immunodeficient mice with HT-29 tumors
[13] = 48 hr after injection, Table 2, mice with HT-29 tumors
[14] = within 24 hours, Table 2 experiment

solubility in sesame oil [1]: soluble in sesame oil | solubility in water [1]: very water insoluble
Compound: Oc1ccc2ccccc2c1N=Nc1ccc(N=Nc2ccccc2)cc1 [Sudan III]

detection in the tumor [2, 4]: negligibly detected
Compound: chloroaluminum phthalocyanine tetrasulfonate [reference compound]

Compound: Bisthioether 2:1 Dye:Polymer Reaction Product Between 2-[2-[2-chloro-3-[[1,3-dihydro-1,1,-dimethyl-3-(3-sulfopropyl)-2H-benz[e]indol-2-ylidene]ethylidene]-5-(ethoxycarbonyl)-1-cyclohexen-1-yl]ethenyl]-1,1-dimethyl-3-(3-sulfopropyl)-1H-benz[e]indolium, Inner Salt, Sodium Salt and Disodium PEG3,400-α,ω-dithiolate [NC100448]
Plasma [2, 5]: 14.33 ± 1.33 percent injected dose of the contrast agent per gram of tissue | Tumor [2, 5]: 5.57 ± 0.73 percent injected dose of the contrast agent per gram of tissue | Plasma [2, 6]: 8.44 ± 1.33 percent injected dose of the contrast agent per gram of tissue | Tumor [2, 6]: 8.6 ± 1.53 percent injected dose of the contrast agent per gram of tissue | Plasma [2, 7]: 0.46 ± 0.40 percent injected dose of the contrast agent per gram of tissue | Tumor [2, 7]: 7.53 ± 0.74 percent injected dose of the contrast agent per gram of tissue | clearance of contrast agent from the blood (in words) [2, 8]: largely cleared | concentration of contrast agent in the tumors (in words) [2, 8]: remained relatively high | contrast agent in the muscle (in words) [2, 8]: not increased | detection in the tumor [2, 4]: detected in the tumor | detection in the tumor [2, 9]: detected in the tumor | concentration of the contrast agent in the blood, FIG. 3B relative to FIG. 3A [2, 10]: decreased | concentration of the contrast agent in the tumor, FIG. 3B relative to FIG. 3A [2, 10]: increased | appearance of tumors, black-and-white infrared film, irradiation at 780 nm ([3]; 24 hours after injection of 0.05 mg/(g body weight) in PBS, versus control tumors): uniformly darker than control tumors | appearance of excised tumors irradiated with 780 nm infrared light, infrared sensitive CCD camera ([3]; 24 hours post injection in PBS, compared to tumors from mice injected with ICG): significantly darker | contrast agent / darkening along the tumor edges ([3]; 24 hours post injection, sliced tumors): do not show darkening around the edges

Compound: Aluminum Chlorophthalocyanine Tetrasulfonyl Chloride Polymer With PEG5,000-α,ω-diamine [Polymer 2]
injected dose localized in the tumor [2, 11]: 2.5% | detection in the tumor [2, 4]: detected in the tumor

Compound: [NH(PEG3400)NHSO2PcAlCl (SO3H)2SO2]n [Example 18]
injected dose localized in the tumor [2, 11]: 4%

Compound: ClAlPc(SO2NHPEG5000)4 [Example 20]
injected dose localized in the tumor [2, 11]: 2.5%

Compound: Aluminum Chlorophthalocyaninetetrasulfonyl Chloride Polymer With PEG3,400-α,ω-diamine [Polymer 1]
injected dose localized in the tumor [2, 11]: 4% | detection in the tumor [2, 4]: detected in the tumor

detection in the tumor [2, 4]: negligibly detected | detection in the tumor [2, 9]: negligibly detected
Compound: CC1(C)C(/C=C/C=C/C=C/C=C2\N(CCCCS(=O)(=O)O)c3ccc4ccccc4c3C2(C)C)=[N+](CCCCS(=O)(=O)[O-])c2ccc3ccccc3c21 [indocyanine green, reference compound]

Compound: [PcAlCl(SO3H)3SO2NH]2[PEG 10,000] [NC100481]
Muscle [2, 12]: 10.3 ± 17.9 percent injected dose of the contrast agent per gram of tissue | Plasma [2, 12]: 7.4 ± 0.3 percent injected dose of the contrast agent per gram of tissue | Tumor [2, 12]: 21.0 ± 7.1 percent injected dose of the contrast agent per gram of tissue | Tumor ([2]; 24 hr after injection, Table 2, mice with HT-29 tumors): 16.6 ± 3.9 percent injected dose of the contrast agent per gram of tissue | Muscle [2, 13]: 59.5 ± 42.9 percent injected dose of the contrast agent per gram of tissue | Tumor [2, 13]: 9.1 ± 4.5 percent injected dose of the contrast agent per gram of tissue | concentration of contrast agent in the tumor (in words) ([2]; after 48 hours, Table 2 experiment): remained at a high concentration | clearance of contrast agent from the blood (in words) [2, 14]: cleared | clearance of contrast agent from the muscle (in words) [2, 14]: cleared

From patent publication US6350431B1, “Compounds” (Nycomed Imaging AS, priority 1997, dated 2002)
